Our source for the binding result and Kd values is article PMC9233711, “Wiskott-Aldrich syndrome protein forms nuclear condensates and regulates alternative splicing” (Nature Communications, 2022).

Assay [1] has as its target T1, recombinant WASP, full-length (1-502 a.a.) with a GST tag at the N-terminus (human, UniProt P42768 1-502).
T1 construct: Wiskott-Aldrich syndrome protein (WASP), human, full-length protein, 1-502 a.a; source: bought: Abnova (in vitro wheat germ expression system, purified by Glutathione Sepharose 4 Fast Flow); not shown: GST, N-terminal, kept
T1 sequence (looked up): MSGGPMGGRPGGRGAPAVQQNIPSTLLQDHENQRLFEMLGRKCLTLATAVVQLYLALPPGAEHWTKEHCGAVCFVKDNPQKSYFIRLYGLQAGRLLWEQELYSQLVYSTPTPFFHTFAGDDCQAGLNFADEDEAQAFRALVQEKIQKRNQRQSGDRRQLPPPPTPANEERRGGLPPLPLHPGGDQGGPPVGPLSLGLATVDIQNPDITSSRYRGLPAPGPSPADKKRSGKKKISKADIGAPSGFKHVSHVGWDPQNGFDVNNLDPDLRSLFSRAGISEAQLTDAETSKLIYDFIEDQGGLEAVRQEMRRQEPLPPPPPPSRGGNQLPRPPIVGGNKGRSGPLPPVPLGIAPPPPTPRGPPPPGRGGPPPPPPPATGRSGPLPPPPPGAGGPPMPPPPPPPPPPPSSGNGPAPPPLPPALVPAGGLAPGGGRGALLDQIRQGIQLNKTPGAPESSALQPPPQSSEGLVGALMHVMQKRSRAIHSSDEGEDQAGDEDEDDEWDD
The assay is described as follows: MST; Monolith NT.115; SRSF2 labelled with RED-tris-NTA at 1 nM, WASP titrated 90 pM to 3 µM; 50 mM HEPES pH 7.5, 10 mM MgCl2, 100 mM KCl, 0.1 mg/ml BSA, 5% glycerol, 1 mM DTT. Conditions: both partners purified.

In assay [2] the target is T2, recombinant human full-length SRSF2, N-terminally 8X histidine- and SUMO-tagged and C-terminus Strep-tagged (human, UniProt Q01130 1-221, RED-tris-NTA dye on the His tag).
T2 chain: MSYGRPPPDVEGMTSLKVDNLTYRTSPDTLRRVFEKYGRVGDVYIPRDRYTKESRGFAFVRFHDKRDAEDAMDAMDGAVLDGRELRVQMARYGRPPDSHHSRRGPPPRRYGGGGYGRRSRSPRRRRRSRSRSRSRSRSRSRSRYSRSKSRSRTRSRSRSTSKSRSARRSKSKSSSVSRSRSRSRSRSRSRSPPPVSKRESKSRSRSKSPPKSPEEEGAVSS
Nature of the assay: MST.

B1: recombinant human full-length SRSF2, N-terminally 8X histidine- and SUMO-tagged and C-terminus Strep-tagged (natural protein, UniProt Q01130 1-221, looked up)
chain: T2 chain
modifications: RED-tris-NTA dye on the His tag
notes: No tag cleavage step is described in the purification, so SUMO and Strep were probably still on the protein; The MST methods call it His6-tagged, the expression methods 8X histidine; also called His6-tagged SRSF2; recombinant SRSF2; source: E. coli BL21 (DE3), purified (HisTrap HP, dialysis); not shown: His8, N-terminal, kept
As for B1, the binding result in assay [1] was “binds”.

B2: recombinant WASP, full-length (1-502 a.a.) with a GST tag at the N-terminus (natural protein)
chain: T1 sequence (looked up)
As a reminder, the Kd is the equilibrium constant for the complex coming apart. As to B2, the Kd in assay [2] was 211 nM.
